Results on 1 protein are retold here after paper doi:10.1101/2024.12.26.630402 (bioRxiv, 2024).

The data set concerns the molecule itself. Briefly: cryo-EM structure.

B1: large glutamate dehydrogenase of 180 kDa subunits from Mycobacterium smegmatis (mL-GDH180) (enzyme)
chain: MIRRLSVAFLSTYRGPQADAPGVTSTGPLAVAAHDDLVSDDLVAAHYRLASMRAPGETKAAVYPGDAGSGAALQIVTDQAPMLVDSVTVLLHRHGIAYTAIMNPVFRVRRGLDGELLDVRPAAEAAPGDGADECWILVPITAAADGEALTEATRLVPGILAEARQIGLDSGAMIAALHGLANDLATDLEGHFPNAERKEVAALLRWLADGHFVLLGYQQCVVGDGNAEVDPASRLGVLRLRNDVLPPLTDSDDLLVLAQATMPSYLRYGAYPYIVVVRESPGASRVIEHRFVGLFTVAAMNANALEIPLISRRVEEALAMAHRDPSHPGQLLRDIIQTIPRPELFALSSKQLLEMALAVVDLGSRRRTLLFLRADHLAHFVSCLVYLPRDRYTTAVRLEMQDILVRELGGAGIDYSARVSESPWAVVHFTVRLPEGTAADSVDTSLENESRIQDLLTEATRNWGDRMISAAAAASISPAALEHYAHAFPEDYKQAFAPQDAIADISLIEALQDDSVKLVLADTAEDRVWKLTWYLGGHSASLSELLPMLQSMGVVVLEERPFTLRRTDGLPVWIYQFKISPHPSIPHAPDAEAQRDTAQRFADAVTAIWHGRVEIDRFNELVMRAGLTWQQVVVLRAYAKYLRQAGFPYSQSHIESVLNENPHTTRSLIDLFEALFDPSQETDGRRDAQGAAAAVAADIDALVSLDTDRVLRAFANLIEATLRTNYFVARPDSARARNVLAFKLNPLVIKELPLPRPKFEIFVYSPRVEGVHLRFGFVARGGLRWSDRREDFRTEILGLVKAQAVKNAVIVPVGAKGGFVVKRPPTLTGDAAADREATRAEGVECYRLFISGLLDVTDNVDKATGAVVTPPEVVRRDGEDAYLVVAADKGTATFSDIANEVAKSYGFWLGDAFASGGSIGYDHKAMGITAKGAWESVKRHFREMGVDTQTQDFTVVGIGDMSGDVFGNGMLLSKHIRLVAAFDHRDIFLDPNPDAGRSWDERKRLFDLPRSSWADYDKSLISEGGGVYSRQQKSIPISPQVRTALGLDADVEELTPPALIKAILKAPVDLLWNGGIGTYIKAETEADADVGDRANDQIRVCGNQVRAKVIGEGGNLGVTALGRIEFDLAGGRINTDALDNSAGVDCSDHEVNIKILIDSAVTAGKVTPEERTELLLSMTDEVGELVLADNRDQNDLMGTSRANAASLLSVHARMIKDLVDNRGLNRELEALPSEKEIRRRADAGIGLTSPELATLMAHVKLALKDDVLASDLPDQEVFASRLPYYFPTRLREELHGEIRSHQLRREIITTMLVNDLVDTAGISYAYRITEDVGVGPVDAVRSYVAINAIFGIGDVWRRIRAAGDAGVPTSVTDRMTLDLRRLVDRAGRWLLNYRPQPLAVGAEINRFGAKVAALTPRMSEWLRGDDKAIVSKEAGDFASHGVPEDLAYHIATGLYQYSLLDVIDIADIVDREPDEVADTYFALMDHLGADALLTAVSRLSRDDRWHSLARLAIRDDIYGSLRALCFDVLAVGEPDENGEEKIAEWETTNSSRVTRARRTLTEIYKDGEQDLATLSVAARQIRSMTRTSGTGTTG
In the case of B1, the “stoichiometry N” value worked out at 4.
